T1: Sec24d (lacking residues 1-266) (human, UniProt O94855 267-1032)
T1 sequence (looked up): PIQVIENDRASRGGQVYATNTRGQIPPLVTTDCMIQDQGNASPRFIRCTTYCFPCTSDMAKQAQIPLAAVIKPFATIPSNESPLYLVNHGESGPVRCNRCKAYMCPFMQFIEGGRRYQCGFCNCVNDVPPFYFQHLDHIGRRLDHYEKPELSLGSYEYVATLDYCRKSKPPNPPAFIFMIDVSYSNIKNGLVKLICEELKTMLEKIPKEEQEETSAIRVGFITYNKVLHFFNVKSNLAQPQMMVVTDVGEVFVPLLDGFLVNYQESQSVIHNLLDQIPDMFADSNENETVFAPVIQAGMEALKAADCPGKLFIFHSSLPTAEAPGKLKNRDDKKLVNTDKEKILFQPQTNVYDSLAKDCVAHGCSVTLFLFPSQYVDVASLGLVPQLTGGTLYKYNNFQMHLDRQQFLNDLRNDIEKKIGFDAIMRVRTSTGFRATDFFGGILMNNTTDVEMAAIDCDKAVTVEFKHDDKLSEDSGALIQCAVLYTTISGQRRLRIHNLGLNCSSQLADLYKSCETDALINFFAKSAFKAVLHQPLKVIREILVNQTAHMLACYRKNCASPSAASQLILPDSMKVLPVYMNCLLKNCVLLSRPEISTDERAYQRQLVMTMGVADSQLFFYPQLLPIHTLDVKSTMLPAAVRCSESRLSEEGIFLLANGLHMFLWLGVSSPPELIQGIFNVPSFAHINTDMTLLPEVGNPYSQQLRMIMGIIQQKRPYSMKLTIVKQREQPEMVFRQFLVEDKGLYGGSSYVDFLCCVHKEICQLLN

B1: membrin peptide 116TTIPMDE122 (peptide)
peptide: TTIPMDE
B2: syntaxin 5 peptide 188DVAIDMMDP196 (peptide)
peptide: DVAIDMMDP

Biological target: T1, Sec24d (lacking residues 1-266)

Row | Binder | binding result
1 | B1 | binds
2 | B2 | binds
